# B1: Kdh holoenzyme (KdhL, KdhM, KdhS); 6-hydroxypseudooxynicotine 2-oxidoreductase; ketone dehydrogenase (Paenarthrobacter nicotinovorans) (protein)
# chain: MMAKAKALIPDNGRAGADEGNRQAWIGQEVLRREDRRLLTGTATFAGDLGVPGQLHMRIVRSTQAHARIVSIDATEAEKTPGVRMVITSEHTRHLGSVLLEELGYHEIYENIEDFSHPVLAVDKVLYVGQPVVAVLAVDPYLAEDAAELVSIEYEPLPVLLDPEEALTGKVELFPGRGNEGARIKKAYGDIDRAFAEAEHVIRHKYVTNRHSGVPMEPRAVVVQPDPARDTLFIWGTVHVHDNRRIIAKMLNLPEVNVRMKHVEIGGSFGVKGGVFPENVVAAWAARTLGVPIKWTEDRVEHMTSTSHAREMVHKLELALDAEGRILGMKDEIFHNHGAYFRQAEPLVSDITAGIVFGPYRVPAYDATLHAVFTNKTPVGAYRAPGRYESTFARERIFDLACAEIGLSKTEFRRRNLLTAEDLPWTPGLDIVHEPYHFDSGDVVKHFNEALEAANFSEWLEESKRLRADGRKVGVGLGVLMDKAGLGLFETGGVEVSRAGRVTVKTGGSSVGQGIETVLAQIVAEELQIAPENIDIVHSDTELIPDGVGSWSSRSTVLAGGAARKAALAVVEKARRLASEMLEADPDDLELTAGSFKVKGTDQQISLYEIAAARDPFTARADNDEPGLAADAVYMNNAMNYPYGVTLVQIELDPDTGGHRILRFSTSTEAGRVINPLTTRGQIIGAAVQGIGGALYEEFLYEEDGQPITTSFMDYLLPSAQEMPNVDCFVTEDAKSPDNPFGAKGLGEIGIIAAGAAIASAIDDAIADGVHTDRLPVTPEQIFSRCQGLNKAER
# notes: kdhLMS co-expressed from pART2-kdhLMS in A. nicotinovorans pAO1; Ni-NTA (tag not described) and Superdex 200; KdhL 87 kDa, KdhM 287 residues, KdhS 160 residues; heterotrimer, dimer of heterotrimers in crystal; with 6-hydroxypseudooxynicotine dehydrogenase complex subunit alpha; 6-hydroxypseudooxynicotine dehydrogenase complex subunit beta
# What was measured:
# [1] = target: T1, Kdh holoenzyme (KdhL, KdhM, KdhS); 6-hydroxypseudooxynicotine 2-oxidoreductase; ketone dehydrogenase (Paenarthrobacter nicotinovorans, UniProt Q933N0); assay: X-ray crystal structure, […] Å; type: binding; conditions: co-purified cofactor, MCD site in KdhL
# T1 construct: gene kdhC; kdhLMS co-expressed from pART2-kdhLMS in A. nicotinovorans pAO1; Ni-NTA (tag not described) and Superdex 200; KdhL 87 kDa, KdhM 287 residues, KdhS 160 residues; heterotrimer, dimer of heterotrimers in crystal; with 6-hydroxypseudooxynicotine dehydrogenase complex subunit alpha; 6-hydroxypseudooxynicotine dehydrogenase complex subunit beta
# T1 sequence (Q933N0 1-794): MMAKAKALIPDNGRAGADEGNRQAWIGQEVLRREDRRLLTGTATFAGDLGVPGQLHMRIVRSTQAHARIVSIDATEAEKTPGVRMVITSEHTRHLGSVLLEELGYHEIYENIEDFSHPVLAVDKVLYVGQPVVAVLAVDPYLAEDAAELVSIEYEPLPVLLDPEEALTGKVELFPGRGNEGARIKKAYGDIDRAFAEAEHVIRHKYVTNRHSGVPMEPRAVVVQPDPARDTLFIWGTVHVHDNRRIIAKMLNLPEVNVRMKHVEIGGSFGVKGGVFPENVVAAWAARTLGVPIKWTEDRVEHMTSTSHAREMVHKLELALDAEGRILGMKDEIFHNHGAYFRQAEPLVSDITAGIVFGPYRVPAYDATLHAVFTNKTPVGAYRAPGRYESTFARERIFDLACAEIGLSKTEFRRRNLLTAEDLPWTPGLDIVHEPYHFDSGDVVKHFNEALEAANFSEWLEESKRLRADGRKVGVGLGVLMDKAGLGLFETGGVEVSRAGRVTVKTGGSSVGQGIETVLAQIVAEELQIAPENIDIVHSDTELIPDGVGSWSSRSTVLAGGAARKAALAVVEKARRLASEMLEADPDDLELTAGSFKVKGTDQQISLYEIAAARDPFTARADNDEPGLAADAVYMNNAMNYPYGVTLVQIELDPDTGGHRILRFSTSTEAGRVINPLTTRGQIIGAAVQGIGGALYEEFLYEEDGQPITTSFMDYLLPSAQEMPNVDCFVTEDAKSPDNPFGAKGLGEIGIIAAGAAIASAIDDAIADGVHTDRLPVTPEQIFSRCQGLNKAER
# T1 sequence (O87681 1-296 partner): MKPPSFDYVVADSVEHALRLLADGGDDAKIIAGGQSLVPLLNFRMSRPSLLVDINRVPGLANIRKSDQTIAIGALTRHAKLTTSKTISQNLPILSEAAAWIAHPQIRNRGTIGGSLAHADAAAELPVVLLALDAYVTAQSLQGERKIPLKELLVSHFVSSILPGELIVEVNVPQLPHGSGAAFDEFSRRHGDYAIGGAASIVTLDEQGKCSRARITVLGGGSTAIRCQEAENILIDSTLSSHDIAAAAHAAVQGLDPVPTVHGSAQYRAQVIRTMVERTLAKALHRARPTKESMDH
# T1 sequence (O87682 2-160 partner): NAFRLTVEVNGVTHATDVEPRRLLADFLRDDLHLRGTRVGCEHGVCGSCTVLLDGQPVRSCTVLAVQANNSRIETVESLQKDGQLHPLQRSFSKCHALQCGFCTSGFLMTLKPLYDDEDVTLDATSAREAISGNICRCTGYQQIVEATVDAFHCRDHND
# [2] = target: T2, Kdh holoenzyme, FAD site in KdhM (Paenarthrobacter nicotinovorans, UniProt O87681); assay: X-ray crystal structure, […] Å; type: binding; conditions: co-purified cofactor
# T2 construct: gene kdhA; same holoenzyme as P1; KdhM 287 residues, 32 kDa, holds FAD; with 6-hydroxypseudooxynicotine dehydrogenase complex subunit gamma; 6-hydroxypseudooxynicotine dehydrogenase complex subunit beta
# T2 sequence (O87681 1-296): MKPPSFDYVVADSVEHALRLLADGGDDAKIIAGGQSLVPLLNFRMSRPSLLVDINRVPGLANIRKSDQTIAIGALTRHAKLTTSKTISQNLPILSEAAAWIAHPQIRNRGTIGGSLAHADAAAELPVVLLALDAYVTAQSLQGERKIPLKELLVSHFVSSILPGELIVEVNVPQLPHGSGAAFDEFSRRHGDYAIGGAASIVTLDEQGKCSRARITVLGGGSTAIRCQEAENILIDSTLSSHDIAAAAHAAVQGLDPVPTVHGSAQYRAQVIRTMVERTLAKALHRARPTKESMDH
# T2 sequence (Q933N0 1-794 partner): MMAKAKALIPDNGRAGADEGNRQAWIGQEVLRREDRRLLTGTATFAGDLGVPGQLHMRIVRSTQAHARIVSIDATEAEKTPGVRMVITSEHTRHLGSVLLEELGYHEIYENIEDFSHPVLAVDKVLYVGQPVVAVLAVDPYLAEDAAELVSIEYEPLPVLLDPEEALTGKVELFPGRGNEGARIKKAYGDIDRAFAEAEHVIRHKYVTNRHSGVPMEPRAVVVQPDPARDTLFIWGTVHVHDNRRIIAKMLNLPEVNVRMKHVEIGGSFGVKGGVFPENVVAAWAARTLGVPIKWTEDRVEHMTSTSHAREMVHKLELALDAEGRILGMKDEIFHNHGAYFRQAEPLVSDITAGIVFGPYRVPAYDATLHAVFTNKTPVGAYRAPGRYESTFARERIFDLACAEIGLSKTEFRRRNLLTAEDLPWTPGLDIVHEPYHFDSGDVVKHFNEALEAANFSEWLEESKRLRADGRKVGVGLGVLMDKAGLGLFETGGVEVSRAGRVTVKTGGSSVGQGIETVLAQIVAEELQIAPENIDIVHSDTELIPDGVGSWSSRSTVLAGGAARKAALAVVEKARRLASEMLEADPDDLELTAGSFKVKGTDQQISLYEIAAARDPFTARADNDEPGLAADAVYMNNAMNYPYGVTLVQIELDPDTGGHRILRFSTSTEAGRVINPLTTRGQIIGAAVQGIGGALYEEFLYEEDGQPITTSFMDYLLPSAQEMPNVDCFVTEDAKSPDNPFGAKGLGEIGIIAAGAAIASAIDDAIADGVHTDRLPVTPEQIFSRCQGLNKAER
# T2 sequence (O87682 2-160 partner): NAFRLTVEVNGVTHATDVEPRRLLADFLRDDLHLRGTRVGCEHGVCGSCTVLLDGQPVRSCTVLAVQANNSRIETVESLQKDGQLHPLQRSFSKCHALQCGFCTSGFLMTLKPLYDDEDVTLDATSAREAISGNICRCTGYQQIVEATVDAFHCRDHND
# [3] = substrate: CNCCCC(=O)c1ccc(O)nc1; assay: purified protein; type: biochemical, Paenarthrobacter nicotinovorans; conditions: 500 μM PMS, 50 μM DCIP, aerobic, 30 °C, pH 8.0, Tris-HCl per Table 2 (Table 3 lists the same value under PBS pH 8.0)
molecule,measurement,setting,value
Nc1ccn([C@@H]2O[C@H](COP(=O)(O)OP(=O)(O)OC[C@H]3O[C@H]4Nc5nc(N)[nH]c(=O)c5N[C@H]4C(S)=C3S)[C@@H](O)[C@H]2O)c(=O)n1 [MCD],"X-ray crystal structure, 3.4 Å",[1],the MCD cofactor is at the center of their intersection
Cc1cc2nc3c(=O)[nH]c(=O)nc-3n(C[C@H](O)[C@H](O)[C@H](O)COP(=O)(O)OP(=O)(O)OC[C@H]3O[C@@H](n4cnc5c(N)ncnc54)[C@H](O)[C@@H]3O)c2cc1C [FAD],"X-ray crystal structure, 3.4 Å",[2],the KdhM-bound FAD cofactor is relatively less restricted from the exterior
B1,Km,[3],12.5 ± 0.9 µM
same,kcat,[3],9.03 ± 0.12 s⁻¹
same,kcat/Km,[3],720000 ± 130000 M⁻¹ s⁻¹
